Results as given in the DeepSol protein solubility set.

test: soluble on expression in E. coli; label from the status in PepcDB or PDB records

Sequence	soluble on expression in E. coli
MNKSESRYYATAARMDEAFLTLLAKKDFEYITVKEICEVAGVNRSTFYLHYETMSDLLSESISRINEQFLAYMEKDSDAFSAKLRNCPRDELYLITPDYLTPYLSYIKNNKRLFRTATENAAVLGMDKSYDRMFRHVFTPILDRYGVLQQDRPYIMAFYIRGLMAIISEWLKNDCTDSITYVTGVIQQCVKMPQSETMNAV	not soluble
MNKVWLTGLLTATASGVFSASTLAATEITWWHAMGGQLGETVNQLATDFNASQSDYKLTPVYKGSYTETLTAGIAAFRAGQAPNILQVFDAGAATIMSSKGVAKPVQDLMIESGYPFTAQDYIAGVRNFYADNTGKMVGMPFNSSTPVLYYNKDMLASVNAQAPQTYEQLEQVAAKLAEKGQAGFAQSLTPWIMFENFKSRHNLPLSDKQNGYQDLSTKIMFNSDDMLMHVKKLKEWSDKGYYKYYGSDWDANQTPFERGEVAMWMGSSGSFGGLRNRVKFNLGTTYLPYWESVTKNPTHTFIGGAALFALQGHTPAQDKGVAAFFAYLTKPETQMNWHKTTGYVPVTNAAYDLTKQSGYYQENPDAEVGVKQLSLPDGEWTKGYRLGYYPQVREVMHREFDNIFSGRSTVESSLNKVEDESAKLLNRFARTVQ	not soluble
MNLEKLEVSHDADSLCVVIEISKHSNIKYELDKESGALMVDRVLYGAQNYPANYGFVPNTLGSDGDPVDALVLSDVAFQAGSVVKARLVGVLNMEDESGMDEKLIALPIDKIDPTHSYVKDIDDLSKHTLDKIKHFFETYKDLEPNKWVKVKGFENKESAIKVLEKAIKAYQG	soluble
MNLFEYKLSVVRQVMDKYEVAEEAKFISGLSKGSMVNALSRKKKLPNKEAKFTRYVIYTVDVERIIDMMEEPYRTVIKKRYYDASLDTVKKDFGLQNKREAYFLVKKSVNKFYDLLENYWK	not soluble
MNLIDNHIHTNFSSDGKDSMEDTIKKAISIGVRYLTFTDHLEHDEDRGFCINYNDYVPVFNKFKEKYKKDIELLLGVEVGYRKHLKNEIEEIINSNPFDFVLCSTHTIDNVPVPSKAYFKGLSKEDAYYKYFNSILETNREFGDYNIYGHLDYISRYGIYSDNRVIYNDFKDVIDEVLKSIINNGSGIELNTSGYRYGLNAIHPNEDILKRYKELGGFIVTVGSDSHRVEDICKDFDVAYDMLKYLDFKYVSLFKERETYFVNIEKVKSNNIA	not soluble
MNLQHHFLIAMPALQDPIFRRSVVYICEHNQNGAMGIIVNKPLENLQIEGILEKLKITPESRDSAIRLDKAVMLGGPLAEDRGFILHTPPSRFASSIRISDNTVITTSRDVLETLGTQQQPSDVLVALGYASWDKGQLEQELLDNAWLTAPADLNILFKTPIAERWREAAKLIGIDILTMPGVAGHALEHHHHHH	soluble
MNMAHTTTSMEIFGSPEQVWQLIGGFNSLPDWLPYIPSSKLTEGGRVRHLANPDGDTIIERLEVFNDKERYYTYSIMNAPFPVTNYLSTIQVKEGTESNTSLVEWSGTFTPVEVSDEEAINLFHGIYSDGLKALQQAFLDLEHHHHHH	soluble
MNMALISLAIDYKKSPIEVRSEFALSGLDVSMLYRSILAIDNVVHAVILSTCNRTEVYLEISDLRVVDDILVWWQGYVRNPNYKIKDYFKLRQGTEVIMHLMKLACGLESMVLGEPQILGQVKDSYTLSKKNHAIGKELDRVFQKVFATAKRVRSETRIGHCPVSVAFSAITLAKRQLDNISSKNVLIIGAGQTGELLFRHVTALAPKQIMLANRTIEKAQKITSAFRNASAHYLSELPQLIKKADIIIAAVNVLEYIVTCKYVGDKPRVFIDISIPQALDPKLGELEQNVYYCVDDINAVIEDNKDKRKYESSKAQKIIVKSLEEYLEKEKAIISNSAIKELFQKADGLVDLSLEKSLAKIRNGKDAEEIIKRFAYEIKKKVLHYPVVGMKEASKQGRSDCLVCMKRMFGLNVEK	not soluble
MNMDVNAVKNSTRGKHWFNLLTQGFNLIASGIDSLLIAEGQLGENKISVFCVVPDSHNHFPRARQGEVGLLEGWSLAQAIDQIIESDQNLTHKRGILCIVDVPSQAYGRREELLGIHQALAAAADSYVRARLAGHPVVSLLVGKSMSGAFLAHGYQANRILALKDQGVMVHAMGKESAARVTLRTVDELENLAANIPPMAYDIESYNSLGLLSGLLNVSHADHPTTSDIDYIQQTLSQTFQEIRNQGTSDLKHRLSAKNREASVHVRELLREQWS	not soluble
MNNGKLFLVGTPIGNLKDITLRALETLQNCDVIAAEDTRQSLKLLNHFDIKKPLISYHKFNENNRSSELMDMVREGKKVALVTDAGMPGISDPGSVIVEKFIENNLEFEVIPG	not soluble
MNNKKTGVLLVNLGTPTAPTAAAVKQFLSEFLHDKRVVDMNRFIWCPLLHGVILPIRAPKVAKLYESVWMEEGSPLLVYSQRQVKALEARLSMPVALGMTYGEPRIKSGIESLEQQGCDEIIILPLYPQYSRTTTAAVFDQIAKQYKTTPVLPNFTMIHNYHDHPLYIKALANSVRQSWERNGKGDYVLCSYHGIPQRFVDNGDIYAAHCERTTELLAQELGLTSEQIGMSYQSRFGREEWLKPYTSETLKALAPKGIKSLDIISPAFSSDCLETLEELSEECKEIFMESGGQKYTFIPCLNDDELHIEMMADIVSSKIFNK	not soluble
MNNMTDLKAIQARSLEMAEYFVAFCKEHDLLCYLCGGGAIGALRNKGFIPWDDDLDFFMPRKDYEKLAELWPRYADERYFLSKSHKDFVDRNLFITIRDKKTTCIKPYQQDLDLPHGLALDVLPLDYYPKNPAERKKQVRWALIYSLFCAQTIPEKHGDLMKWGSRILLGLTPKSLRYRIWKKAEKEMTKYDLADCDGITELCSGPGYMRNKYPITSFEDNLFLPFEGTEMPIPIGYDVYLRTAFGDYMTPPPADKQVPHHDAVIADMDKSYTEYKGEYGGLEHHHHHH	soluble
MNNNDLVAKLWKLCDNLRDGGVSYQNYVNELASLLFLKMCKETGQEADYLPEGYRWDDLKSRIGQDQMQFYRNLLVQLGSDEKKLVQAVFHNVSTTIEQPKQLTELVSYMDALDWYNGNHGKSRDDFGDMYEGLLQKNANETKSGAGQYFTPRPLIKTIIHLLKPQPREVVQDPAAGTAGFLIEADRYVKSQTNDLDDLDGDTQDFQIHRAFIGLELVPGTRRLALMNCLLHDIEGNLDHGGAIRLGNTLGSDGENLPKAHIVATNPPFGSAAGTNITRTFVHPTSNKQLCFMQHIIETLHPGGRAAVVVPDNVLFEGGKGTDIRRDLMDKCHLHTILRLPTGIFYAQGVKTNVLFFTKGTVTNPHQDKNCTDDVWVYDLRTNMPSFGKRTPFTEQHLQPFETVYGEDPHGLSPREEGEWSFNAEESEVADSEENKNTDQHQATSRWRKFSREWIRSAKSDSLDISWLKDKDSIDADSLPEPDVLAAEAMGELVQALGELDALMRELGAGDEADAQRQLLNEAFGEVKA	not soluble
MNNREIVQKLWNLCNVLRDDGITYHQYVTELTYLLFLKMMKETGQEYIIPEPYRWDVLAKKDGIELKTYYQQLLMALGQEENELLRQIYTDATSNIREPKNLEKIIRTIDALDWYNAKEEGLGALYEGLLEKNASELKSGAGQYFTPRVLIDVIVELVDPKPGERCHDPAAGTFGFMIAASRHVRAKTDDYFDLSEEEIRFQKYEAFSGVELVRDTHRLAVMNALLHDVHGDILLGDTLSPLGEQLKGYDVILTNPPFGTKKGGERATRTDFTFMTSNKQLNFLQHIYRALRPNGKARAAVVVPDNVLFEGGVGADIRRDLMDKCNVHTILRLPTGIFYAQGVKTNVLFFTRGETDTGNTKEVWVYDLRTNMPSFGKRNPLTKDHFAGFMKAYTAEDRHQVDDERWNVFTRDDIAKKGDSLDIGLIADESLSVYDNLPDPIDSAEEAVEKLELAISLLNEVIAELKAAEHPPRYEPAKTEMLHVAERLEVSER	not soluble
MNNSAFTFQTLHPDTIMDALFKQGIRVDSGLTPLNSYENRVYQFQDEERRRFVVKFYRPERWTADQILEEHQFALQLVNDEVPVAAPVAFNGQTLLNHQGFYFAVFPSVGGRQFEADNIDQMEAVGRYLGRMHQTGRKQLFIHRPTIGLNEYLIEPRKLFEDATLIPSGLKAAFLKATDELIAAVTAHWREDFTVLRLHGDCHAGNILWRDGPMFVDLDDARNGPAIQDLWMLLNGDKAQQRMQLETIIEAYEEFSEFDTAEIGLIEPLRAMRLVYYLAWLMRHWADPAFPKNFPWLTGEDYWLRQTATFIEQAKVLQEPPLQLTPMY	not soluble
MNNTIETILAHRSIRKFTAVPITDEQRQTIIQAGLAASSSSMLQVVSIVRVTDSEKRNELAQFAGNQAYVESAAEFLVFCIDYQRHATINPDVQADFTELTLIGAVDSGIMAQNCLLAAESMGLGGVYIGGLRNSAAQVDELLGLPENSAVLFGMCLGHPDQNPEVKPRLPAHVVVHENQYQELNLDDIQSYDQTMQAYYASRTSNQKLSTWSQEVTGKLAGESRPHILPYLNSKGLAKR	soluble
MNPKHSCTNFGADIPVNSQLIVTTSELRQKLKEKNKFILVDNRTWDEHIGKVSGYTYYDKKGRIPGALYGHSGSDSVSLEEYRNIDNTMRNKYEILEMWDKENIDVNKQLIFMCGSGWRAAEVLTYANVIGVENTSLYSDGWMGWSLDNSNLIEVGEHKLEHHHHHH	not soluble
MNPYQAHRIKKLKYQLENAESYEEWKSTALQLDEETGLQEWKYDNCSAYFDAELISYRLNLLRKYRLQQRVMDSVYLLQEGLTHDIANIGHPMLFAATYVGTKQIIEDYIEEVSLSLAFIAASQCQTLTVAEKLKFFKNCQKTYGLEHHHHHH	not soluble
MNQEQNDIAIRVSNLSKCYHIYDTPRDRLKQFILPRLHHLTGQTPRQYFREFWALRDVSFEVKKGETIGIIGRNGSGKSTLLQMICGTLNPTSGSITTYGRIAALLELGSGFNPEFTGRENVYMNASVLGLSQEETDARFDDIAAFADIGEFIEQPVKTYSSGMMVRLGFAVQAQVKPDILIVDEALAVGDAKFQAKCFDRLQQLKDGGTSILLVTHSSEQIVTHCSEAILLDGGDVIEHGEPRYVVNHYMDLLFGKERKSYSASAFSTESNSVEPTQDDNLSLNFIDDVFSSHANYNEHEYRWGDGTATILDFYLLTDNEPYPSVITSGQSVVLGVAVRFYEDLVRPILGITIKTKEGVTVYGVNSETLETDEIKVLGSKGTTALIKAEFICRLAPGDYFISLGLATRKGEEIVPHDRRYDAIYLQIAPVTKFFGLVDLGLKLSAQNTSLLEHHHHHH	soluble
MNQLIFDFAAHDYPSFDKFLGTENAELVYVLRHKHGQFIYVWGEEGAGKSHLLQAWVAQALEAGKNAAYIDAASMPLTDAAFEAEYLAVDQVEKLGNEEQALLFSIFNRFRNSGKGFLLLGSEYTPQQLVIREDLRTRMAYCLVYEVKPLTDQEKIDALASMAAARQVTVDSEIFEYLLKHWRRDMDSLMMMLDTLDNYAVTMGKRITLPLLRQLLKQQETQ	not soluble
MNQLIFDFAAHDYPSFDKFLGTENAELVYVLRHKHGQFIYVWGEEGAGKSHLLQAWVAQALEAGKNAAYIDAASMPLTDAAFEAEYLAVDQVEKLGNEEQALLFSIFNRFRNSGKGFLLLGSEYTPQQLVIREDLRTRMAYCLVYEVKPLTDQEKIDALASMAAARQVTVDSEIFEYLLKHWRRDMDSLMMMLDTLDNYAVTMGKRITLPLLRQLLKQQETQLEHHHHHH	soluble
MNQPIELSLEQQFSIRSFATQVQNMSHDQAKDFLVKLYEQMVVREATYQELLKHQWGLDSGSTPA	soluble
